Measured values published in patent publication US20100004165A1, “Novel Protein Transduction Domains and Uses Therefor” (The Arizona Board of Regents, a body corporate acting on …, priority 2005, published 2010).
Like-named read-outs stand apart in the source and are kept apart here. Square brackets hold non-standard residues; d marks the D form. Ends that are not written are not given here. * marks the point of attachment. FITC = O=C1OC2(c3ccc(O)cc3Oc3cc(O)ccc32)c2ccc(NC(=S)*)cc21; pS = N[C@@H](COP(=O)(O)O)C(=O)O; βAla = NCCC(=O)O

Tests used:
3T3 fibroblasts = assay: Transduction of FITC-labeled peptides into 3T3 fibroblasts (fluorescence imaging); format: cell-based; conditions: 50 μM, 1 hour, media with or without serum
Procedure: FITC-(b)[…] (SEQ ID NO: 37)(WLRRIKA (SEQ ID NO: 3) monomer), FITC-(b)[…] (SEQ ID NO: 38)(WLRRIKA (SEQ ID NO: 3) dimer), and FITC-(b)[…] (SEQ ID NO: 39)(WLRRIKA (SEQ ID NO: 3) trimer) were synthesized on a 0.2 mmol scale using Fmoc-based solid phase peptide synthesis. The peptides were solubilized in water to create 3 mM stock solutions. 3T3 fibroblasts, cultured in Dulbecco's Modified Eagle Medium (DMEM) with 2 mM glutamine, pen/strep antibiotic, and 10% fetal bovine serum (FBS), were seeded at a density of 50,000 cells per well (1 ml of 50,000 cells/ml) in 4-well chambered slides (4 slides were used). The slides were incubated at 37° C. with 5% CO2 in a humidified incubator for 4 hours to allow the cells to adhere to the slides. After 4 hours, each well was washed 3 times with phosphate buffered saline (PBS). 50 μl of a 3 mM stock of each peptide as well as a 3 mM stock of fluorescein in water were added to 15 ml tubes containing 3 ml of DMEM with 2 mM glutamine, antibiotic, and 10% FBS and to 15 ml tubes containing 3 ml of serum-free DMEM with 2 mM glutamine and antibiotic. Treatments were performed in duplicate for both serum-containing and serum-free DMEM. On each slide system, each well received media (either with or without serum) with fluorescein, WLRRIKA (SEQ ID NO: 3) monomer, WLRRIKA (SEQ ID NO: 3) dimer, or WLRRIKA (SEQ ID NO: 3) trimer. In all cases, the final peptide or fluorescein concentration was 50 μM per well. Once the treatments were added, the slides were incubated at 37° C. with 5% CO2 in a humidified incubator for 1 hour. Then, each well was washed with PBS 3 times. Following the PBS wash, 0.2 ml trypsin was added to each well to digest residual peptide bound to the outer cellular membranes, and the slides were incubated at 37° C. for 10 minutes. To inactivate the trypsin, 1 ml DMEM with serum was added to each well, and the slides were incubated for 4 hours to allow cells to reattach to the slides. After 4 hours, the cells were washed 3 times in PBS, and 1 ml of DMEM with serum was added to each well. Then, the slides were imaged using a 40× objective. […]

porcine ear skin [1] = assay: Ex vivo skin transduction, porcine ear skin in modified Franz diffusion cell (Example 2); format: in vitro ADME; conditions: for skin penetration: 100 uM, conjugated or alone (FIG. 1, Panel C)
Procedure: The ex vivo model selected for skin transduction studies was freshly excised porcine ears. […] The system was maintained at 37° C. and under constant stirring. […] The amount of peptides that permeated across the skin was determined in the receptor phase; 1.5 mL of the receptor phase was withdrawn, lyophilized and the residue was suspended in 150 μL of water. […] Standard curves of the peptides were used as reference.

[2] = system: primary rat astrocyte cells; assay: Transduction across cell membranes in primary rat astrocyte cells; format: cell-based
Procedure: The in vitro model used to assess transduction across cell membranes was primary rat astrocyte cells. Cells were isolated as described (Innocenti et. al., J. Neurosci. 20:1800-1808, 2000), seeded at ˜3×10^4 cells/cm^2, and cultured in full serum (10% FBS in α-MEM) overnight. Some cells were serum starved by culturing in 0.5% FBS for 1-24 hours prior to treatment with transduction peptides.

porcine ear skin [3] = assay: In vitro skin penetration and transdermal delivery, porcine ear skin in Franz diffusion cell, spectrofluorimetry (Example 3); conditions: for penetration in both SC and [E+D] compared with nonconjugated P20: all time points studied (0.5-8 h), p<0.05; for transdermal delivery: amount in the receptor phase: detected only at 8 hours post-application; for course of concentration in [E+D]: from 0.5 to 4 hours post-application, no further increase between 4 and 8 hours; for time of maximal rate of penetration in the whole skin (SC+[E+D]): post-application
Procedure: Fluorescence microscopy was used to visualize the peptides in different skin layers.
Formulations: Except in the experiments involving chemical penetration enhancers, FITC-labeled peptides were dissolved in phosphate-buffered saline (PBS, 10 mM, pH 7.2); the peptide concentration was 100 μM. In the experiment involving penetration enhancers, PBS could not be used as a solvent because of the lipophilic nature of monoolein and oleic acid. Propylene glycol was used as a solvent, since it solubilizes both lipids and peptides. […] The formulations were prepared by mixing monoolein or oleic acid with propylene glycol and adding the peptides to the system immediately thereafter.
Porcine ear skin was used as model skin for in vitro skin penetration studies because of its similarity with human skin, especially regarding histological and biochemical properties and permeability to drugs (33). Freshly excised porcine ears were obtained from a local abattoir. The skin from the outer surface of the ear was carefully dissected; making sure that the subcutaneous fat was maximally removed (34). Maximum care was taken to maintain the integrity of the skin, which was assured by histology. The cleaned porcine ear skin was immediately mounted in a Franz diffusion cell (diffusion area of 1 cm^2; Laboratory Glass Apparatus, Inc, Berkeley, Calif., USA), with the stratum corneum facing the donor compartment (where the formulation was applied) and the dermis facing the receptor compartment, which was filled with PBS (100 mM, pH 7.2, 3 mL). The receptor phase was maintained at 37° C. and under constant stirring. To achieve higher reproducibility, the skin samples were equilibrated to the diffusion cell conditions for 30 minutes before application of any formulation.
PBS solutions or propylene glycol formulations of the peptides (70 μL each) were applied to the skin surface (donor compartment). […] The concentrations of FITC-P20 (SEQ ID NO: 9), FITC-YARA-P20 (SEQ ID NO: 42), and FITC-TAT-P20 (SEQ ID NO: 43) in the skin and receptor phase were determined at 0.5, 1, 2, 4, and 8 hour post-application.
At the end of the experiment, skin surfaces were thoroughly washed with distilled water to remove excess formulation and carefully wiped with a tissue paper. To separate the stratum corneum (SC) from the remaining epidermis (E) and dermis (D), the skin was subjected to tape stripping. The skin was stripped with 15 pieces of adhesive tape (3M, St. Paul, Minn., USA), and the tapes containing the SC were immersed in 3 mL of a water:methanol (1:1 v/v) solution, vortexed for 2 min, and bath sonicated for 30 minutes. The remaining [E+D] was cut in small pieces, vortexed for 2 minutes in 2 mL of a water:methanol (1:1 v/v) solution, and homogenized using a tissue grinder for 1 minute and bath sonication for 30 minutes. The resulting mixture was centrifuged for 1 minute. The peptide present in the receptor phase was concentrated (10×) as follows. Samples (2 mL) of the receptor phase were lyophilized for 24 hours, and the residue was dissolved in 200 μL of a hidroalcoholic (20% of ethanol) solution.
All solutions were subjected to fluorimetry analysis using a Gemini SpectraMax™ platereader (Molecular Devices, Sunnyvale, Calif., USA) with excitation at 495 nm and emission at 518 nm. […] To evaluate the recovery of the peptides from the skin in the extraction procedure, tissues sections (1 cm^2) were spiked with 20 μL of 0.2 and 0.5 mM solutions of the peptides. The skin sections were homogenized using a tissue grinder, vortex-mixer, and bath sonicator, as described above. […] We accounted for such a recovery percentage in the quantification of peptides.

porcine ear skin [4] = assay: Fluorescence microscopy of skin sections after peptide application
Text: The skin sections (8 μm) were mounted on glass slides. The slides were visualized without any additional staining or treatment through a 20× objective using a Zeiss microscope (Carl Zeiss, Thornwood, N.Y., USA) equipped with a filter for FITC and AxioVision software.

Rat aorta = assay: Vasorelaxation of rat aorta rings pre-contracted with KCl (muscle bath)
Procedure: Rat aorta was isolated and dissected free from connective and fat tissue. Transverse rings, 3.0 mm in width, were cut and tied to silk suture. The tissue was suspended in a muscle bath containing a bicarbonate buffer (120 mM NaCl, 4.7 mM KCl, 1.0 mM MgSO4, 1.0 mM NaH2PO4, 10 mM glucose, 1.5 mM CaCl2, and 25 mM […], pH 7.4) and equilibrated with 95% O2/5% CO2 at 37° C. The rings were fixed at one end to a stainless steel wire and attached to a force transducer in muscle perfusion system (Radnotti). The rings were then progressively stretched, and the isometric force generated in response to 110 mM KCl (with equimolar replacement of NaCl in bicarbonate buffer) was determined until the consistent maximal force was produced. Agonists and peptide was added directly to the baths. Tissue that was pre-contracted with 110 mM potassium chloride (KCl) followed by 1.0 mM WL-P20 ([…]p[…], pS is phosphoserine) (SEQ ID NO: 10), where pS is phosphoserine) relaxed compared to untreated control (13% relaxation at 10 minutes, 50% relaxation at 30 minutes, and maximum 88% relaxation at ˜60 minutes, FIG. 4). Percent relaxation was calculated relative to maximum force generated with KCl. […] Such a difference may result from different mechanisms of penetration and/or intracellular localization.

[5] = PBS vehicle, 4 hours post-application

## FITC-(b)AWLRRIKA ({FITC}-[βAla]WLRRIKA) [WLRRIKA monomer]
3T3 fibroblasts
  fluorescence within the cells (ability to penetrate the cells): not able to penetrate the cells

## WLRRIKAWLRRIKAWLRRIKA [W3]
3T3 fibroblasts
  fluorescence within the cells (ability to penetrate the cells): bright fluorescence within the cells
Porcine ear skin [1]; 100 uM transduction domain, non-covalently bound (FIG. 1, Panel A)
  carrying of non-covalently bound P20 across the skin: did not carry P20
Porcine ear skin [1]
  skin penetration: significantly enhanced
Porcine ear skin [1]; 1 mM W3 used to carry P20 (FIG. 1, Panel B)
  skin penetration [E+D] of non-covalently bound P20: significant skin penetration
[2]; 50 μM
  transduction: efficient transduction
[2]; 50 μM for 1 h
  persistence of transduction: at least 24 hours

## WL-scrP20: control, the pseudo-monomer WLRRIKA-(WL-scrP20)
[2]; 1 μM
  transduction: no transduction was observed
[2]; 25 μM
  transduction: no transduction was observed
[2]; 50 μM
  transduction: no transduction was observed

## FITC-(b)AWLRRIKAWLRRIKA [WLRRIKA dimer]
3T3 fibroblasts
  fluorescence within the cells (ability to penetrate the cells): bright fluorescence within the cells

## YARAAARQARAWLRRASAPLPGLK (YARAAARQARAWLRRA[pS]APLPGLK; also: FITC label) [YARA-P20]
Porcine ear skin [3]
  penetration in both SC and [E+D] compared with nonconjugated P20: significantly higher
  transdermal delivery: amount in the receptor phase: 0.031 ± 0.011 nmol
  course of concentration in [E+D]: progressively increased
  time of maximal rate of penetration in the whole skin (SC+[E+D]): 1 h
Porcine ear skin [4]; 4 hours post-application
  localisation of fluorescence in skin layers: strong fluorescence in the SC and viable epidermis
Rat aorta
  time of maximum relaxation: 5 to 10 min
Porcine ear skin [1]
  skin penetration: significantly enhanced

## YGRKKRRQRRRWLRRASAPLPGLK [TAT-P20]
Porcine ear skin [3]
  penetration in both SC and [E+D] compared with nonconjugated P20: significantly higher
  transdermal delivery: amount in the receptor phase: 0.027 ± 0.009 nmol
  course of concentration in [E+D]: progressively increased
  time of maximal rate of penetration in the whole skin (SC+[E+D]): 1 h
Porcine ear skin [4]; 4 hours post-application
  localisation of fluorescence in skin layers: strong fluorescence in the SC and viable epidermis

## YARAAARQARA
Porcine ear skin [3]
  amount penetrated into the skin (SC+[E+D]) relative to amount that permeated across the skin: 34 times
  effect of monoolein or oleic acid on topical or transdermal delivery: failed to further increase
  influence of propylene glycol on skin penetration compared to PBS: did not influence
  penetration in the SC and [E+D] relative to the control peptide FITC-YKAc: 8-10 times
  transdermal delivery: amount found in the receptor phase: 0.053 ± 0.009 nmol
Porcine ear skin [4]
  localisation of fluorescence in skin layers: strong fluorescent staining of SC and viable epidermis

## YGRKKRRQRRR [TAT]
Porcine ear skin [3]; 4 hours post-application
  influence of propylene glycol on skin penetration compared to PBS: did not influence
Porcine ear skin [3]; [5]
  amount penetrated into the skin (SC+[E+D]) relative to amount that permeated across the skin: 30 times
  transdermal delivery: amount found in the receptor phase: 0.058 ± 0.008 nmol
Porcine ear skin [3]; propylene glycol, monoolein 10% w/w or oleic acid 5% w/w, 4 h
  effect of monoolein or oleic acid on topical or transdermal delivery: failed to further increase
Porcine ear skin [4]; 4 hours post-application
  localisation of fluorescence in skin layers: strong fluorescent staining of SC and viable epidermis
